Reference: patent publication US20220372112A1 (KEYMED BIOSCIENCES, published 2022)

B1: h15F9.v25 (antibody, V domains shown)
VH: QIQLVQSGSELKKPGASVKVSCKASGYTFTNYGINWVRQAPGQGLEWMGWINPNTGETTYAEGFTGRFVLSWDTSVSTAYLQISSLKAEDTAVYFCARLYYGNRFDSWGQGTLVTVSS
VL: DIVMTQSPDSLAVSLGERATINCKSSQSLLNSGNQRNYLAWYQQKPGQPPKLLIYWASTRESGVPDRFSGSGSGTDFTLTISSLQAEDVAVYYCQQAYYYPLTFGGGTKVEIK
notes: Humanized; also called 15F9VLv2 + 15F9VHv5
B2: h15F9.v15 (antibody, V domains shown)
VH: QIQLVQSGSELKKPGASVKVSCKASGYTFTNYGINWVRQAPGQGLEWMGWINPNTGETTYAEGFTGRFVLSWDTSVSTAYLQISSLKAEDTAVYFCARLYYGNRFDSWGQGTLVTVSS
VL: DIVMTQSPDSLAVSLGERATINCKSSQSLLNSGNQRNYLTWYQQKPGQPPKLLIYWASTRESGVPDRFSGSGSGTDFTLTISSLQAEDVAVYYCQNAYYYPLTFGGGTKVEIK
notes: Humanized; also called 15F9VLv1 + 15F9VHv5
B3: h15F9.v15r1 (antibody, V domains shown)
VH: QVQLVQSGSELKKPGASVKVSCKASGYTFTNYGINWVRQAPGQGLEWMGWINPNTGETTYAEEFKGRFVFSLDTSVSTAYLQISSLKAEDTAVYFCARLYYGNRFDSWGQGTLVTVSS
VL: DIVMTQSPDSLAVSLGERATINCKSSQSLLNSGNQRNYLTWYQQKPGQPPKLLIYWASTRESGVPDRFSGSGSGTDFTLTISSLQAEDVAVYYCQNAYYYPLTFGGGTKVEIK
notes: Humanized; also called 15F9VLv1 + 15F9VHv5r1
B4: h15F9.v15r2 (antibody, V domains shown)
VH: EVQLVQSGSELKKPGASVKVSCKASGYTFTNYGINWVRQAPGQGLEWMGWINPYTGETTYAEEFKGRFVFSLDTSVSTAYLQISSLKAEDTAVYFCARLYYGNRFDSWGQGTLVTVSS
VL: DIVMTQSPDSLAVSLGERATINCKSSQSLLNSGNQRNYLTWYQQKPGQPPKLLIYWASTRESGVPDRFSGSGSGTDFTLTISSLQAEDVAVYYCQNAYYYPLTFGGGTKVEIK
notes: Humanized; also called 15F9VLv1 + 15F9VHv5r2
B5: h15F9.v16 (antibody, V domains shown)
VH: QIQLVQSGSELKKPGASVKVSCKASGYTFTNYGINWVRQAPGQGLEWMGWINPGTGETTYAEGFTGRFVLSWDTSVSTAYLQISSLKAEDTAVYFCARLYYGNRFDSWGQGTLVTVSS
VL: DIVMTQSPDSLAVSLGERATINCKSSQSLLNSGNQRNYLTWYQQKPGQPPKLLIYWASTRESGVPDRFSGSGSGTDFTLTISSLQAEDVAVYYCQNAYYYPLTFGGGTKVEIK
notes: Humanized; also called 15F9VLv1 + 15F9VHv6
B6: h15F9.v25r1 (antibody, V domains shown)
VH: QVQLVQSGSELKKPGASVKVSCKASGYTFTNYGINWVRQAPGQGLEWMGWINPNTGETTYAEEFKGRFVFSLDTSVSTAYLQISSLKAEDTAVYFCARLYYGNRFDSWGQGTLVTVSS
VL: DIVMTQSPDSLAVSLGERATINCKSSQSLLNSGNQRNYLAWYQQKPGQPPKLLIYWASTRESGVPDRFSGSGSGTDFTLTISSLQAEDVAVYYCQQAYYYPLTFGGGTKVEIK
notes: Humanized; also called 15F9VLv2 + 15F9VHv5r1
B7: h15F9.v25r2 (antibody, V domains shown)
VH: EVQLVQSGSELKKPGASVKVSCKASGYTFTNYGINWVRQAPGQGLEWMGWINPYTGETTYAEEFKGRFVFSLDTSVSTAYLQISSLKAEDTAVYFCARLYYGNRFDSWGQGTLVTVSS
VL: DIVMTQSPDSLAVSLGERATINCKSSQSLLNSGNQRNYLAWYQQKPGQPPKLLIYWASTRESGVPDRFSGSGSGTDFTLTISSLQAEDVAVYYCQQAYYYPLTFGGGTKVEIK
notes: Humanized; also called 15F9VLv2 + 15F9VHv5r2
B8: h15F9.v26 (antibody, V domains shown)
VH: QIQLVQSGSELKKPGASVKVSCKASGYTFTNYGINWVRQAPGQGLEWMGWINPGTGETTYAEGFTGRFVLSWDTSVSTAYLQISSLKAEDTAVYFCARLYYGNRFDSWGQGTLVTVSS
VL: DIVMTQSPDSLAVSLGERATINCKSSQSLLNSGNQRNYLAWYQQKPGQPPKLLIYWASTRESGVPDRFSGSGSGTDFTLTISSLQAEDVAVYYCQQAYYYPLTFGGGTKVEIK
notes: Humanized; also called 15F9VLv2 + 15F9VHv6
B9: h15F9.v35 (antibody, V domains shown)
VH: QIQLVQSGSELKKPGASVKVSCKASGYTFTNYGINWVRQAPGQGLEWMGWINPNTGETTYAEGFTGRFVLSWDTSVSTAYLQISSLKAEDTAVYFCARLYYGNRFDSWGQGTLVTVSS
VL: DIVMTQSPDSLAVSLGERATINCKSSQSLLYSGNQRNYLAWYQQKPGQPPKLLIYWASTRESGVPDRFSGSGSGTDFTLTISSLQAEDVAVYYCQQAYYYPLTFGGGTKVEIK
notes: Humanized; also called 15F9VLv3 + 15F9VHv5
B10: h15F9.v35r1 (antibody, V domains shown)
VH: QVQLVQSGSELKKPGASVKVSCKASGYTFTNYGINWVRQAPGQGLEWMGWINPNTGETTYAEEFKGRFVFSLDTSVSTAYLQISSLKAEDTAVYFCARLYYGNRFDSWGQGTLVTVSS
VL: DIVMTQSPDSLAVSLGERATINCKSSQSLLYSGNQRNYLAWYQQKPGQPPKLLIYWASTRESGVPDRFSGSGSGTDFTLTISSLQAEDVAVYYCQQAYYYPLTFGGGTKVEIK
notes: Humanized; also called 15F9VLv3 + 15F9VHv5r1
B11: h15F9.v35r2 (antibody, V domains shown)
VH: EVQLVQSGSELKKPGASVKVSCKASGYTFTNYGINWVRQAPGQGLEWMGWINPYTGETTYAEEFKGRFVFSLDTSVSTAYLQISSLKAEDTAVYFCARLYYGNRFDSWGQGTLVTVSS
VL: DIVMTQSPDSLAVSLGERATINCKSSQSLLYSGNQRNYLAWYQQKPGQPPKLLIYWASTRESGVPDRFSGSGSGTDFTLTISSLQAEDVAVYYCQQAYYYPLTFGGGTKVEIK
notes: Humanized; also called 15F9VLv3 + 15F9VHv5r2
B12: h15F9.v36 (antibody, V domains shown)
VH: QIQLVQSGSELKKPGASVKVSCKASGYTFTNYGINWVRQAPGQGLEWMGWINPGTGETTYAEGFTGRFVLSWDTSVSTAYLQISSLKAEDTAVYFCARLYYGNRFDSWGQGTLVTVSS
VL: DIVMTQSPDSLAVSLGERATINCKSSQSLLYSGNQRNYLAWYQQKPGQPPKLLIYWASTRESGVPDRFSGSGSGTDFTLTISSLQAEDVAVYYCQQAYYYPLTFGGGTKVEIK
notes: Humanized; also called 15F9VLv3 + 15F9VHv6
B13: h18A9.v12 (antibody, V domains shown)
VH: QVQLVQSGAEVKKPGSSVKVSCKPSGYTFTNYLIDWVRQAPGQGLEWMGGINPGSGDTVYNEKFQGRVTLTADESTSTAYMELSSLRSEDTAVYFCARRVRGNSFDSWGQGTLVTVSS
VL: DIVMTQSPDSLAVSLGERATINCKSSQSLLNSGNQKNYLTWYQQKPGQPPKLLIYWASTRESGVPDRFSGSGSGKDFTLTISSLQAEDVAVYYCQNNYFYPLTFGGGTKVEIK
notes: Humanized; also called 18A9VLv1 + 18A9VHv2
B14: h18A9.v11 (antibody, V domains shown)
VH: QVQLVQSGAEVKKPGSSVKVSCKPSGYAFTNYLIDWVRQAPGQGLEWMGGINPGSGDTVYNEKFQGRVTLTADKSSMTAYMELSSLRSEDTAVYFCARRVRGNSFDSWGQGTLVTVSS
VL: DIVMTQSPDSLAVSLGERATINCKSSQSLLNSGNQKNYLTWYQQKPGQPPKLLIYWASTRESGVPDRFSGSGSGKDFTLTISSLQAEDVAVYYCQNNYFYPLTFGGGTKVEIK
notes: Humanized; also called 18A9VLv1 + 18A9VHv1
B15: h18A9.v13 (antibody, V domains shown)
VH: QVQLVQSGAEVKKPGSSVKVSCKPSGYTFTNYLIDWVRQAPGQGLEWMGGINPGSGDTVYNEKFQGRVTLTADKSSMTAYMELSSLRSEDTAVYYCARRVRGNSFDSWGQGTLVTVSS
VL: DIVMTQSPDSLAVSLGERATINCKSSQSLLNSGNQKNYLTWYQQKPGQPPKLLIYWASTRESGVPDRFSGSGSGKDFTLTISSLQAEDVAVYYCQNNYFYPLTFGGGTKVEIK
notes: Humanized; also called 18A9VLv1 + 18A9VHv3
B16: h18A9.v14 (antibody, V domains shown)
VH: QVQLVQSGAEVKKPGSSVKVSCKASGYTFTNYLIDWVRQAPGQGLEWMGGINPGSGDTVYNEKFQGRVTLTADKSSMTAYMELSSLRSEDTAVYFCARRVRGNSFDSWGQGTLVTVSS
VL: DIVMTQSPDSLAVSLGERATINCKSSQSLLNSGNQKNYLTWYQQKPGQPPKLLIYWASTRESGVPDRFSGSGSGKDFTLTISSLQAEDVAVYYCQNNYFYPLTFGGGTKVEIK
notes: Humanized; also called 18A9VLv1 + 18A9VHv4
B17: h18A9.v15 (antibody, V domains shown)
VH: QVQLVQSGAEVKKPGSSVKVSCKPSGYTFTNYLIDWVRQAPGQGLEWMGGINPGSGDTVYNEKFQGRVTITADESTSTAYMELSSLRSEDTAVYFCARRVRGNSFDSWGQGTLVTVSS
VL: DIVMTQSPDSLAVSLGERATINCKSSQSLLNSGNQKNYLTWYQQKPGQPPKLLIYWASTRESGVPDRFSGSGSGKDFTLTISSLQAEDVAVYYCQNNYFYPLTFGGGTKVEIK
notes: Humanized; also called 18A9VLv1 + 18A9VHv5

Target: T1, human Claudin 18.2 (human, UniProt P56856-2 1-261)
T1 construct: whole, on cells
T1 sequence (looked up): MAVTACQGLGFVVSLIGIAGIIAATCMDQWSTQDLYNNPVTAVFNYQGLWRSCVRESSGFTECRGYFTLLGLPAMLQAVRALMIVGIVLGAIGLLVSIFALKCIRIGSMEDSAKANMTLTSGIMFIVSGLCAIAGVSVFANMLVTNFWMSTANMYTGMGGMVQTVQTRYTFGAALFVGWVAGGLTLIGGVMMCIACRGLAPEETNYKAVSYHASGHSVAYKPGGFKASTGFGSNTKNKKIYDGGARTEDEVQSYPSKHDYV
Assay: flow cytometry (iQue) on cells, antibody from 100 nM in 5-fold steps; cell line not named in Example 5
Method: The cells at logarithmic growth phase were taken, blocked with 3% BSA for 30 minutes, plated at 5×10⁴ cells/100 μL into a U-shaped 96-well plate, centrifuged at 1100 rpm for 3 minutes, the supernatant was discarded, the cells were gently patted and loosed, 50 μL of antibody diluted according to the series was added to each well (antibody concentration starts from 100 nM, 5 times dilution in 8 series), incubated at 4° C. for 1 hour. After the incubation, 140 μL of 0.5% BSA was added to each well to wash 3 times, AF 647 APC anti-human secondary antibody was added with 30 μL/well and incubated at 4° C. for 40 minutes. After the incubation, 140 μL of 0.5% BSA was added to each well to wash 3 times, and finally resuspended each well with 50 μL PBS for iQue (Intellicyt, USA) detection (shown in Table 2).

Q: Which EC50 does the source give for B1 here?
A: Its EC50 is 0.773 nM.

Q: Which EC50 does the source give for B2 here?
A: The EC50 was 1.67 nM.

Q: Which EC50 does the source give for B3 here?
A: The EC50 was 2.53 nM.

Q: How did the EC50 turn out when B4 was run?
A: Its EC50 is 1.65 nM.

Q: For B5, which EC50 is on record?
A: The EC50 was 0.705 nM.

Q: B6 was tested. Which EC50 did it give?
A: The EC50 was 1.72 nM.

Q: For B7, which EC50 is on record?
A: Its EC50 is 1.61 nM.

Q: For B8, which EC50 is on record?
A: The EC50 was 1.02 nM.

Q: For B9, which EC50 is on record?
A: The EC50 was 0.951 nM.

Q: With B10 as the binder, how does the EC50 read?
A: The EC50 was 1.2 nM.

Q: B11 was tested. Which EC50 did it give?
A: The EC50 was 0.879 nM.

Q: For B12, which EC50 is on record?
A: The EC50 was 0.786 nM.

Q: How did the EC50 turn out when B13 was run?
A: Its EC50 is 0.913 nM.

Q: B14 was tested. Which EC50 did it give?
A: The EC50 was 0.645 nM.

Q: How did the EC50 turn out when B15 was run?
A: Its EC50 is 0.761 nM.

Q: For B16, which EC50 is on record?
A: The EC50 was 0.548 nM.

Q: Which EC50 does the source give for B17 here?
A: Its EC50 is 1.41 nM.
